{
  "source": "patent US20220259593A1",
  "about": "“CONTROL OF MAMMALIAN GENE DOSAGE USING CRISPR” (The Regents of the University of California, priority 2019, published 2022)",
  "data": [
    {"test_system": "K562 CRISPRi cells", "assay": "Constant region variant library pooled growth screen, K562", "type": "cell-based, human", "details": "sgRNA constant region variants; activity relative to the original, un-modified constant region cr995", "source_text": "(§1) We calculated relative activities for each targeting sequence:constant region pair by normalizing its phenotype to that of the targeting sequence paired with the unmodified constant region, identifying 409 constant region variants that on average conferred intermediate activity (0.1-0.9, FIG. 5B). Ten variants selected for individual evaluation also mediated intermediate levels of mRNA knockdown (FIG. 6B). Mapping the activities of constant region variants with single base substitutions onto the structure recapitulated known relationships between constant region structure and function (FIG. 5C).\n(§2) The sequences in the library of modified constant regions were derived from the sgRNA (F+E) optimized sequence (23) modified to include a BlpI site (15). Each modified constant region was paired with 36 sgRNA targeting sequences (3 sgRNAs targeting each of 10 essential genes and six non-targeting negative control sgRNAs). The cloning strategy (described below) allowed the mutation of most positions in the sgRNA constant region. A variety of modifications were made, including substitutions of all single bases not in the BlpI restriction site (which is used for cloning), double substitutions including all substitutions at base-paired position pairs not before or in the BlpI site, and a variety of triple, quadruple, and sextuple substitutions, including base-pair-preserving substitutions at adjacent base-pairs.\n(§3) The library was ordered and cloned in two parts. One part consisted of ˜100 modifications to the eight bases upstream of the BlpI restriction site. Constant region variants with mutations in this section were paired with each of the 36 targeting sequences, ordered as a pooled oligonucleotide library (Twist Biosciences), and cloned into pCRISPRia-v2 as described above. The second part consisted of ˜900 modifications to the 71 bases downstream of the BlpI restriction site. This part was cloned in two steps. First, all 36 targeting sequences were individually cloned into pCRISPRia-v2 as described above. The vectors were then pooled at an equimolar ratio and digested with BlpI (NEB) and XhoI (NEB). The modified constant region variants were ordered as a pooled oligonucleotide library (Twist Biosciences), PCR amplified with Phusion polymerase (NEB), digested with BlpI (NEB) and XhoI (NEB), and ligated into the digested vector pool, in a manner identical to previously published protocols and as described above, except for the different restriction enzymes.\n(§4) Screens with the compact mismatched sgRNA library and the constant region library were conducted largely as described above, with smaller modifications during the screening procedure and an updated sequencing library preparation protocol. Briefly, the libraries were transduced in duplicate into K562 CRISPRi (both libraries) or HeLa CRISPRi cells (compact mismatched sgRNA library) as described above. K562 replicates were maintained separately in 0.15 to 0.3 L of RPMI-1640 in 0.3 L spinner flasks for the course of the screen. HeLa replicates were maintained in sets of ten 15-cm plates. Cells were selected with puromycin as described above (K562: 1 day of 0.75 μg/mL and 1 day of 0.85 μg/mL; HeLa: 2 days of 0.8 μg/mL and 1 day of 1 μg/mL). The remainder of the screen was carried out at >1000× library coverage (K562 compact mismatched sgRNA library: >2000×; HeLa compact mismatched sgRNA library: >1000×; K562 constant region library: >2000×). Multiple samples were harvested after 4 to 8 days of growth. For the drug screen, 10 μM lovastatin (ApexBio) or an equivalent volume of DMSO (vehicle) was added to flasks at t=0, and 3 days later cells were pelleted and re-suspended in fresh medium. Lovastatin (12 μM) or DMSO was again added after 5 and 9 days of growth, with media exchanges 3 days after drug supplementation. Multiple samples were harvested after 4 to 8 days for the K562 and HeLa growth screens. […]", "values": [
      {"molecule": "cr275 (nucleic acid, listed as DNA, chemistry not fully specified) guide: GTTTAAGAGCTAAGCTGGAAACAGCATAGCAAGTTTAAATAAGGCTAGTCCGTTATCAACCTGAAAAGGTGGGACAGAGTCTGTCCT", "Mean relative activity": 1.06},
      {"molecule": "cr567 (nucleic acid, listed as DNA, chemistry not fully specified) guide: GTTTAAGAGCTAAGCTGGAAACAGCATAGCAAGTTTAAATAAGGCTAGTCCGTTATCAACTTGCGAAAGTGGCACCGAGTCGGTGCT", "Mean relative activity": 1.06}
    ]},
    {"test_system": "K562 CRISPRi cells", "assay": "Constant region variant library pooled growth screen, K562", "type": "cell-based, human", "details": "sgRNA constant region variants; activity relative to the un-modified constant region cr995", "source_text": "as §1, §2, §3, §4", "values": [
      {"molecule": "cr769 (nucleic acid, listed as DNA, chemistry not fully specified) guide: GTTTAAGAGCTAAGCTGGAAACAGCATAGCAGGTTTAAATAAGGCTAGTCCGGAATCAACTTGAAAAAGTGGCACCGAGTCGGTGCT", "Mean relative activity": 0.9268},
      {"molecule": "cr387 (nucleic acid, listed as DNA, chemistry not fully specified) guide: GTTTAAGAGCTAAGCTGGAAACAGCATAGCAAGTTTAAATAAGGCTCGTCCGTTATCAACTTGAAAAAGTGGCACCGAGTCGGTGCT", "Mean relative activity": 0.9094},
      {"molecule": "cr503 (nucleic acid, listed as DNA, chemistry not fully specified) guide: GTTTAAGAGCTAAGCTGGAAACAGCATAGCAAGTTTAAATAAGGCTAGTCCGTTATCAACTTGAAAAAGTGGCACCGAGTCGGGGCT", "Mean relative activity": 0.9079},
      {"molecule": "cr136 (nucleic acid, listed as DNA, chemistry not fully specified) guide: GTTTAAGAGCTAAGCTGGAAACAGCATAGCAAGTTTAAATAAGGTTAATCCGTTATCAACTTGAAAAAGTGGCGACGAGTCGTCGCT", "Mean relative activity": 0.9172},
      {"molecule": "cr132 (nucleic acid, listed as DNA, chemistry not fully specified) guide: GTTTAAGAGCTAAGCTGGAAACAGCATAGCAAGTTTAAATAAGGCTAGTCCGTTATCAACTTGAGAAAGTGGCACTGAGTCAGTGCT", "Mean relative activity": 0.9196},
      {"molecule": "cr141 (nucleic acid, listed as DNA, chemistry not fully specified) guide: GTTTAAGAGCTAAGCTGGAAACAGCATAGCAAGTTTAAATAAGGCCAGTCCGTTATCAACTTGAGAAAGTGGCACCGAGTCGGTGCT", "Mean relative activity": 0.9018},
      {"molecule": "cr777 (nucleic acid, listed as DNA, chemistry not fully specified) guide: GTTTAAGAGCTAAGCTGGAAACAGCATAGCAAGTTTAAATAAGGCTAGTCCGGTATCAACTTGAAAAAGTGGCACCGAGTCGGTGCT", "Mean relative activity": 0.9022},
      {"molecule": "cr838 (nucleic acid, listed as DNA, chemistry not fully specified) guide: GTTTAAGAGCTAAGCTGGAAACAGCATAGCAAGTTTAAATAAGGCCAGTCCGTTATCAACTTGAAAAAGTGGCACCGAGTCGGTGCT", "Mean relative activity": 0.9187},
      {"molecule": "cr409 (nucleic acid, listed as DNA, chemistry not fully specified) guide: GTTTAAGAGCTAAGCTGGAAAGAGCATAGCAAGTTTAAATAAGGCTAGTCCGTTATCAACTTGAAAAAGTGGCACCGAGTCGGTGCT", "Mean relative activity": 0.9158},
      {"molecule": "cr256 (nucleic acid, listed as DNA, chemistry not fully specified) guide: GTTTAAGAGCTAAGCTGGAAACAGCATAACAAGTTTAAATAAGGCTAGTCCGTTATCAACTTGAAAAAGTGGCACCGAGTCGGTGCT", "Mean relative activity": 0.9023},
      {"molecule": "cr640 (nucleic acid, listed as DNA, chemistry not fully specified) guide: GTTTAAGAGCTAAGCTGGAAACAGCATAGCAAGTTTAAATAAGGCTAGTCCGTTATCAACTTGAAAAAGTGGCCCAGAGTCTGGGCT", "Mean relative activity": 0.9186},
      {"molecule": "cr597 (nucleic acid, listed as DNA, chemistry not fully specified) guide: GTTTAAGAGCTAAGCTGGAAACAGCATAGCAAGTTTAAATAAGGCTAGTCCGTTATCACCTTGAAAAAGGGGGACCTAGTAGGTCCT", "Mean relative activity": 0.9187},
      {"molecule": "cr863 (nucleic acid, listed as DNA, chemistry not fully specified) guide: GTTTAAGAGCTAAGCTGGAAACCGCATAGCAAGTTTAAATAAGGCTAGTCCGTTATCAACTTGAAAAAGTGGCACCGAGTCGGTGCT", "Mean relative activity": 0.9031},
      {"molecule": "cr910 (nucleic acid, listed as DNA, chemistry not fully specified) guide: GTTTAAGAGCTAAGCTGGAAACAGCATAGCAAGTTTAAATAAGGCTAGTCCGTTATCAACTTGAAAAAGTGGAACGGAGTCCGTTCT", "Mean relative activity": 0.9171},
      {"molecule": "cr974 (nucleic acid, listed as DNA, chemistry not fully specified) guide: GTTTAAGAGCTAAGCTGGAAACAGCATAGCAAGTTTAAATAAGGCTAGTCCGTTATCAACTTGAGAAAGTGGCACCGTGTCGGTGCT", "Mean relative activity": 0.9235},
      {"molecule": "cr525 (nucleic acid, listed as DNA, chemistry not fully specified) guide: GTTTAAGAGCTAAGCTGGAAACAGCATAGCAAGTTTAAATAAGGCTAGTCCGTTATCACCTTGAAAAAGGGGCACGGAGTCCGTGCT", "Mean relative activity": 0.9205},
      {"molecule": "cr364 (nucleic acid, listed as DNA, chemistry not fully specified) guide: GTTTAAGAGCTAAGCTGGAAACAGCATAGCAAGTTTAAATAAGGCTAGTCCGTTATCAACATGAAAAAGTGGCACCGAGTCGGTGCT", "Mean relative activity": 0.9193},
      {"molecule": "cr752 (nucleic acid, listed as DNA, chemistry not fully specified) guide: GTTTAAGAGCTAAGCTGGAAACAGCATAGCAAGTTTAAATAAGGCTAGTCCGTTATCAACTTGATAAAGTGGCACCGAGTCGGTGCG", "Mean relative activity": 0.9196},
      {"molecule": "cr977 (nucleic acid, listed as DNA, chemistry not fully specified) guide: GTTTAAGAGCTAAGCTGGAAACAGCATAGCAAGTTTAAATAAGGCTAGTCCGTTATCATCTTGAAAAAGAGGCACCAAGTTGGTGCT", "Mean relative activity": 0.9127},
      {"molecule": "cr388 (nucleic acid, listed as DNA, chemistry not fully specified) guide: GTTTAAGAGCTAAGCTGGAAACAGCATAGCAAGTTTAAATAAGGCTAGTCCGTTATCAACTTGAAAAAGTGTAACCGAGTCGGTTAT", "Mean relative activity": 0.9188}
    ]}
  ]
}
